{"source": "patent US20180037623A1", "molecular_target": "FGF23 receptor", "experiment": "cell-based or functional assay", "data": [{"substance": "sKlotho-FGF23-6×His fusion polypeptide", "values": [{"measurement": "Egr-1-luciferase reporter activity, fold change at about 0.6 nM purified fusion, with heparin (20 µg/ml)", "value": 2, "unit": "fold change"}, {"measurement": "Egr-1-luciferase reporter activity, fold change at about 1.21 nM purified fusion, no heparin", "value": 1.2, "unit": "fold change"}, {"measurement": "Egr-1-luciferase reporter activity, fold change at about 19.3 nM purified fusion, no heparin", "value": 2.4, "unit": "fold change"}]}]}
